Source: patent US20240383982A1 (Genmab, published 2024)
Values belong to the binder of their own block, whether it stands above or below them.

Legend:
[1] = molecular target: T1, rat (Rattus norvegicus) B7H4, full length, on HEK-293F cells (rat, UniProt Q501W4 25-257); assay: flow cytometry, HEK-293F cells transiently transfected with rat B7H4, PE anti-human IgG F(ab')2 [panel Rat B7H4]
T1 construct: Uniprot Q501W4; also called rat B7H4
T1 sequence: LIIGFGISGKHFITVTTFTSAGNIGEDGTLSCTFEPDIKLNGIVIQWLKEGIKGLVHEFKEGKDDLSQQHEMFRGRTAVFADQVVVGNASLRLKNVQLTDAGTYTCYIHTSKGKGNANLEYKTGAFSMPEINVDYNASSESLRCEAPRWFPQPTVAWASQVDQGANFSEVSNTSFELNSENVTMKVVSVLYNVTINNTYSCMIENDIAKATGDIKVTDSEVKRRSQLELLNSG
Experimental: (§1) Cells (3×10⁴ cells/well) were incubated in polystyrene 96-well round-bottom plates (Greiner bio-one, cat. no. 650180) with serial dilutions of antibodies (ranging from 0.000458 to 30 μg/mL in 4-fold dilution steps) in 100 μL PBS/0.1% BSA/0.02% azide (staining buffer) at 4° C. for 30 min. Experiments were performed in technical duplicate. After washing twice in staining buffer, cells were incubated in 50 μL secondary antibody at 4° C. for 30 min. As a secondary antibody, R-Phycoerythrin (PE)-conjugated goat-anti-human IgG F(ab′)₂ (1:500 in FACS buffer; Jackson ImmunoResearch Laboratories, Inc., West Grove, PA, cat. no. 109-116-098), was used. Cells were washed twice in staining buffer, re-suspended in 30 μL FACS buffer containing Topro-3 (1:10,000 dilution) and analyzed on an iQue Screener (Intellicyt Corporation, USA). Binding curves were analyzed using non-linear regression (sigmoidal dose-response with variable slope) using GraphPad Prism V7.02 software (GraphPad Software, San Diego, CA, USA).

[2] = molecular target: T2, human B7H4, full length, on cells (human, UniProt Q7Z7D3 25-282); assay: flow cytometry on MDA-MB-468 tumor cells [panel MDA-MB-468]
T2 construct: Uniprot Q7Z7D3; Used for transfected HEK cells and for the B7H4-expressing human tumor cell lines (endogenous B7H4); also called VTCN1
T2 sequence: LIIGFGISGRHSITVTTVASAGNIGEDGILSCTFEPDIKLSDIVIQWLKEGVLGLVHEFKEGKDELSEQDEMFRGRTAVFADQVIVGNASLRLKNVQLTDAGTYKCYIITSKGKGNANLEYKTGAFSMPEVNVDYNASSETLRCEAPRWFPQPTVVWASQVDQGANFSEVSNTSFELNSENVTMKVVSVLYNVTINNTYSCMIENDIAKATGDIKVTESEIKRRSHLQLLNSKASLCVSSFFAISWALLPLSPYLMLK
Experimental: as §1
Binding was analyzed by flow cytometry as described above.

[3] = molecular target: T2, human B7H4, full length, on cells; assay: flow cytometry, HEK-293F cells transfected with human B7H4 [panel Human B7H4]
Experimental: as §1

[4] = molecular target: T3, human recombinant His tagged B7H4 protein (Sino Biological cat. no. 10738-H08H) (human, UniProt Q7Z7D3 29-258); assay: BLI (Octet HTX); antibody on anti-human IgG Fc capture sensor, human B7H4 ECD-His in solution; 2nd experiment (average of n = 3)
T3 construct: Bought protein; theoretical mass 26.8 kDa; also called human B7H4; human B7H4 extracellular domain
T3 sequence: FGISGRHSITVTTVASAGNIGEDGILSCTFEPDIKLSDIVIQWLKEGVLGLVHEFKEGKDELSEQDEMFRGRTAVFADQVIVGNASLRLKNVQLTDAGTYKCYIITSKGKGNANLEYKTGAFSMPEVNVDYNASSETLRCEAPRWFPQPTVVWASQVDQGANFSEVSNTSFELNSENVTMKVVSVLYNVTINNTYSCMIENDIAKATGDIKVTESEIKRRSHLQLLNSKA
Experimental: (§2) Target binding affinity of B7H4 antibodies was determined by label-free biolayer interferometry (BLI) on an Octet HTX instrument (FortéBio). Experiments were carried out while shaking at 1,000 RPM at 30° C. […] Anti-Human IgG Fc Capture (AHC) biosensors (FortéBio, cat. no. 18-5060) were pre-conditioned by exposure to 10 mM glycine (Sigma-Aldrich, cat. no. 15527) buffer pH 1.7 for 5 s, followed by neutralization in Sample Diluent (FortéBio, cat. no. 18-1048) for 5 s; both steps were repeated 2 times. Next, AHC sensors were loaded with antibody (1 μg/mL in Sample diluent) for 600 s. […] The theoretical molecular mass of human B7H4 and mouse B7H4 (as ECD-His tagged molecules) based on their amino acid sequences (26.8 kDa and 26.6 kDa respectively) were used for calculations. For each antibody a reference sensor was used, which was incubated with Sample Diluent instead of antigen. AHC sensors were regenerated by exposure to 10 mM glycine buffer pH 1.7 for 5 s, followed by neutralization in Sample Diluent for 5 s; both steps were repeated twice. Subsequently sensors were loaded again with antibody for the next cycle of kinetics measurements.
(§3) Data were acquired using Data Acquisition Software v9.0.0.49d (FortéBio) and analyzed with Data Analysis Software v9.0.0.12 (FortéBio). Data traces were corrected per antibody by subtraction of the reference sensor. The Y-axis was aligned to the last 10 s of the baseline, Interstep Correction alignment to dissociation and Savitzky-Golay filtering were applied. Data traces with a response<0.05 nm were excluded from analysis. The data was fitted with the 1:1 Global Full fit model using a window of interest for the association and dissociation times set at 300 s and 200 s respectively.

[5] = molecular target: T3, human recombinant His tagged B7H4 …; assay: BLI (Octet HTX); antibody on anti-human IgG Fc capture sensor, human B7H4 ECD-His in solution; 2nd experiment
Experimental: as §2, §3

EC50 (read off the curve) [1]: ~0.3 µg/mL
EC50 (read off the curve) [2]: ~1 µg/mL
EC50 (read off the curve) [3]: ~0.05 µg/mL
Kd [4]: 57 nM
koff [4]: 0.0047 s⁻¹
kon [4]: 84000 M⁻¹ s⁻¹
B1: IgG1-B7H4-C1-N52S-FEAR (antibody, V domains shown)
VH: QVQLQQWGAGLLKPSETLSLTCAVYGGSFSGYYWSWIRQPPGKGLEWIGEISHSGSTNYNPSLKSRVTISIDTSKNQFSLKLTSVTAADTAVFYCARGLFNWNFDSWGQGTLVTVSS
VL: DIQMTQSPSSLSASVGDRVTITCRASQGIRNDLGWYQQKPGKAPKRLIYGASSLQSGVPSRFSGSGSGTEFTLTISSLQPEDFATYYCLQHNSYPRTFGQGTTVEIKR
notes: Full length human IgG1 with L234F, L235E, D265A, K409R (FEAR) heavy chain constant region and kappa light chain; bivalent, monospecific; also called IgG1-B7H4-C1-052S-FEAR

B2: bsIgG1-huCD3-H101G-FEALxB7H4-C1-N52S-FEAR (bispecific antibody)
heavy 1: not shown
light 1: not shown
heavy 2: QVQLQQWGAGLLKPSETLSLTCAVYGGSFSGYYWSWIRQPPGKGLEWIGEISHSGSTNYNPSLKSRVTISIDTSKNQFSLKLTSVTAADTAVFYCARGLFNWNFDSWGQGTLVTVSSASTKGPSVFPLAPSSKSTSGGTAALGCLVKDYFPEPVTVSWNSGALTSGVHTFPAVLQSSGLYSLSSVVTVPSSSLGTQTYICNVNHKPSNTKVDKRVEPKSCDKTHTCPPCPAPEFEGGPSVFLFPPKPKDTLMISRTPEVTCVVVAVSHEDPEVKFNWYVDGVEVHNAKTKPREEQYNSTYRVVSVLTVLHQDWLNGKEYKCKVSNKALPAPIEKTISKAKGQPREPQVYTLPPSREEMTKNQVSLTCLVKGFYPSDIAVEWESNGQPENNYKTTPPVLDSDGSFFLYSRLTVDKSRWQQGNVFSCSVMHEALHNHYTQKSLSLSPGK
light 2: DIQMTQSPSSLSASVGDRVTITCRASQGIRNDLGWYQQKPGKAPKRLIYGASSLQSGVPSRFSGSGSGTEFTLTISSLQPEDFATYYCLQHNSYPRTFGQGTTVEIKRTVAAPSVFIFPPSDEQLKSGTASVVCLLNNFYPREAKVQWKVDNALQSGNSQESVTEQDSKDSTYSLSSTLTLSKADYEKHKVYACEVTHQGLSSPVTKSFNRGEC
notes: also called bslgG1-huCD3-H101G-FEALxB7H4-C1-N52S-FEAR; BslgG1-huCD3-H101G-FEALxB7H4-C1-N52S-FEAR
binding result [1]: binds

Kd [5]: 9.9 nM
koff [5]: 0.0025 s⁻¹
kon [5]: 250000 M⁻¹ s⁻¹
B3: IgG1-B7H4-C5-FEAR (antibody, V domains shown)
VH: QLQLQESGPGLVKPSETLSLTCTVSGGSIKSGSYYWGWIRQPPGKGLEWIGNIYYSGSTYYNPSLRSRVTISVDTSKNQFSLKLSSVTAADTAVYYCAREGSYPNQFDPWGQGTLVTVSS
VL: EIVMTQSPATLSVSPGERATLSCRASQSVSSNLAWYQQKPGQAPRLLIYGASTRATGIPARFSGSGSGTEFTLTISSLQSEDFAVYYCQQYHSFPFTFGGGTKVEIKR
notes: Full length IgG1 FEAR, kappa; variable domains from US20190085080A1
